Assay results reported in patent US20230331800A1.

Columns and labels:
[1] = target: OT-I TCR (ovalbumin(257-264)-specific T cell receptor of OT-1 TCR transgenic mouse CD8+ T cells) (mouse); assay: cell-based or functional assay; settings: scale: orders of magnitude higher potency than T5-IL2M6
[2] = target: IL2 receptors on lymphocyte populations of human PBMCs (human) (UniProt P01589); assay: cell-based or functional assay
UniProt P01589, sequence (P01589 22-272, chain 1 of 3): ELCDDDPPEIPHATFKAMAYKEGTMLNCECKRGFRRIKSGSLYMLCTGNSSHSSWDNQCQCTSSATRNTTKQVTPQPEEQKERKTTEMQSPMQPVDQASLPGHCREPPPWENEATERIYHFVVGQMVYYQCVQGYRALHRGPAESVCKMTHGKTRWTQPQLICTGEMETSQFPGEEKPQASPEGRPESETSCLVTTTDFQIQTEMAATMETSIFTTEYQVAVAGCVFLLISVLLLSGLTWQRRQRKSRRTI
UniProt P01589, sequence (P14784 27-551, chain 2 of 3, further chain): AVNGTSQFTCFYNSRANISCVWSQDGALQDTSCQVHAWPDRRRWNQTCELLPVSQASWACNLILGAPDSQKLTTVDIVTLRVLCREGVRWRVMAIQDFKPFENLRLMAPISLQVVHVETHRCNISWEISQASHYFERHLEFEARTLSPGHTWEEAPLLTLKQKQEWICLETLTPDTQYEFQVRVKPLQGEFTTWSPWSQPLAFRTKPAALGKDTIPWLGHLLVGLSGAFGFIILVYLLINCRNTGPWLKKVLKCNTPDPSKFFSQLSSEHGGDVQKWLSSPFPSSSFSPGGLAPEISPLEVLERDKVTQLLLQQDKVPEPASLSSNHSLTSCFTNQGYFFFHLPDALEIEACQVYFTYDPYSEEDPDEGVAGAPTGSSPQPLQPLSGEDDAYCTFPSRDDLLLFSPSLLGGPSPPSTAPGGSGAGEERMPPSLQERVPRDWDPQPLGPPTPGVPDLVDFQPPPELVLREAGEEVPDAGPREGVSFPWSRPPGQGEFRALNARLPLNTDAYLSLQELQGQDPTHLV
UniProt P01589, sequence (P31785 23-369, chain 3 of 3, further chain): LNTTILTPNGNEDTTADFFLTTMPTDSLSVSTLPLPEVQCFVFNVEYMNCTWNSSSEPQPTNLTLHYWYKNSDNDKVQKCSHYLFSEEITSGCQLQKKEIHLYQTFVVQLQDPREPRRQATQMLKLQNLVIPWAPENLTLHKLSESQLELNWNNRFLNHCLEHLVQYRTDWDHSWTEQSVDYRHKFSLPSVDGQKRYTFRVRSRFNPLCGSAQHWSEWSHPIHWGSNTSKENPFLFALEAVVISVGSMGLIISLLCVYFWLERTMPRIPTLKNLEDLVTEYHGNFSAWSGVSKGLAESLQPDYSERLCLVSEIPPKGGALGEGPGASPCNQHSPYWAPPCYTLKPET

“T4-IL2M6: OVA(257-264)-GCGGS-(GGGGS)2-mB2m-(GGGGS)4-mH2Kb-(GGGGS)4-Fc-(GGGGS)3-hIL2(H16A, F42A) (Fc fusion)” was tested, and the potency in inducing STAT5 phosphorylation in CD8+ OT-I T cells, against T5-IL2M6 [1] was 2.

“IL2M5: Fc-GGGGS-human IL2 (N88D, C125A) fusion (Fc fusion)” showed a potency in STAT5 phosphorylation on multiple lymphocyte populations (FIG. 14A-C), against IL2M4 (fold less potent than IL2M4) [2] greater than 100.

In the case of “IL2M2: Human IL2-(GGGGS)4-human IL-2Ra-GGGGS-Fc (Fc fusion)”, the potency in STAT5 phosphorylation on multiple lymphocyte populations (FIG. 12A-C), against IL2M0 (fold less potent than IL2M0) [2] is reported as 100.
